We go through one molecule from patent US20230174651A1.

Assay [1] deals with CD79b CAR with CD8α hinge as the spacer. The assay can be described thus: flow cytometry, Jurkat cells transduced with construct CAR-1, fluorescently labelled second antibody; gate set on untransduced (UTD) cells.
Target sequence (P01732 138-182): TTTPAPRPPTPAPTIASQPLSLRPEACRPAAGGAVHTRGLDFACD
The target is the same in assay [2]. As to the kind of experiment: flow cytometry, Jurkat cells transduced with construct CAR-2, fluorescently labelled second antibody; gate set on untransduced (UTD) cells. For orientation: A flow cytometer gives signals particle by particle.
Assay [3] has the same target. The assay can be described thus: flow cytometry, Jurkat cells transduced with construct CAR-4, fluorescently labelled second antibody; gate set on untransduced (UTD) cells.
The target is the same in assay [4]. As to the kind of experiment: flow cytometry, Jurkat cells transduced with construct CAR-6, fluorescently labelled second antibody; gate set on untransduced (UTD) cells.
The target is the same in assay [5]. The assay can be described thus: flow cytometry, Jurkat cells transduced with construct CAR-3, fluorescently labelled second antibody; gate set on untransduced (UTD) cells.
The target is the same in assay [6]. As to the kind of experiment: flow cytometry, Jurkat cells transduced with construct CAR-5, fluorescently labelled second antibody; gate set on untransduced (UTD) cells.

B1: mouse FC version of CD8B575 (purified from mouse hybridoma clone) (antibody, V domains shown)
VH: QVQLQQSGGGLVQPGGSLKLSCAASGFTFSNYYMSWARQTPEKRLEWVAYISNDGDATYYPDSVKGRFTISRDNAKNTLYLQMSSLKSEDTAMYYCTREDYYSDYWFASWGQGTTVTVSS
VL: DIVMTQSQKFMSTTIEDRVSITCKASQNVGTAVAWYQQKPGQSPKLLIYSTSNRYTGVPDRFTGSGSGTDFTLTISNIQSEDLADYFCQQYSSYPLTFGGGTKLEIK
As for B1, the % positive (CAR+ Jurkat cells) in assay [1] was 13%; in assay [2] it was 41.7%; in assay [3] it was 54.1%; in assay [4], 84%; in assay [5], 15.9%; in assay [6] it was 84.5%.
